Results from patent US20120316071A1 (published 2012).
Positions count from the first letter of the chain named. Blank lines part the entries; values can stand above or below the binder they belong to.

Experiments:
[1] = biological target: T1, rHuman IGF-1 sR, (IGF-1 sR), CF (R&D Systems Cat#391-GR) (human, UniProt P08069 31-932); experiment: MSD Multispot ECL, antigen spotted on plate, Fab 32.5 nM; blank spot 473
T1 construct: Bought soluble receptor; also called insulin-like growth factor-1 soluble receptor

[2] = biological target: T2, rHuman Erythropoietin R/Fc Chimera, CF (R&D Systems Cat#963-ER) (human, UniProt P19235 25-250); experiment: as above
T2 construct: Bought reagent; also called EPO R/Fc; EPO R; Fc part of the bought chimera not given
T2 sequence (looked up): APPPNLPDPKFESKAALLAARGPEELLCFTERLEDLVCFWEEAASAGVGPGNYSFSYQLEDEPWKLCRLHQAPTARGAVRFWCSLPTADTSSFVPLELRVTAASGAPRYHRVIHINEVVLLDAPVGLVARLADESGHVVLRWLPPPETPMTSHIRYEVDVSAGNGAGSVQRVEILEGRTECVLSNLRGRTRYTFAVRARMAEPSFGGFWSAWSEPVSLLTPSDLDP

[3] = biological target: T3, rHuman ErbB2/Fc Chimera, CF (R&D Systems Cat#1129-ER) (human, UniProt P04626 23-652); experiment: as above
T3 construct: Bought reagent; also called human epidermal growth factor 2 receptor; Fc part of the bought chimera not given

[4] = biological target: T4, rHuman Notch-1/Fc Chimera, CF (R&D Systems Cat#3647-TK) (human, UniProt P46531 19-526); experiment: as above
T4 construct: Bought reagent; Fc part of the bought chimera not given

[5] = biological target: T5, rHuman HGF R/c-MET/Fc Chimera, CF (R&D Systems Cat#358-MT/CF) (human, UniProt P08581 25-932); experiment: as above
T5 construct: Bought reagent; also called HGF R/Fc; hepatocyte growth factor receptor; Fc part of the bought chimera not given

[6] = biological target: T6, rHuman EGF R/Fc Chimera, CF (R&D Systems Cat#344-ER) (human, UniProt P00533 25-645); experiment: as above
T6 construct: Bought reagent; also called epidermal growth factor receptor; Fc part of the bought chimera not given

[7] = biological target: T7, Recombinant Human DLL4 (R&D Systems Cat#1506-D4/CF) (human, UniProt Q9NR61 27-529); experiment: as above
T7 construct: Bought recombinant protein; also called rHuman DLL4; delta-like protein 4

[8] = biological target: T8, rHuman CD44/Fc Chimera, CF (R&D Systems Cat#3660-CD) (human, UniProt P16070 21-220); experiment: as above
T8 construct: Bought reagent; Fc part of the bought chimera not given

[9] = biological target: T9, rHuman HGF R/c-MET/Fc Chimera, CF (R&D Systems Cat#358-MT/CF) (human, UniProt P08581 25-932); experiment: MSD multispot ECL, antigen spotted, Fab 2.3 nM; blank spot 234
T9 construct: Bought reagent; also called HGF R/Fc; hepatocyte growth factor receptor

[10] = biological target: T10, rHuman CD44/Fc Chimera, CF (R&D Systems Cat#3660-CD) (human, UniProt P16070 21-220); experiment: as above
T10 construct: Bought reagent

[11] = biological target: T11, rHuman ErbB2/Fc Chimera, CF (R&D Systems Cat#1129-ER) (human, UniProt P04626 23-652); experiment: as above
T11 construct: Bought reagent; also called human epidermal growth factor 2 receptor

[12] = biological target: T12, rHuman EGF R/Fc Chimera, CF (R&D Systems Cat#344-ER) (human, UniProt P00533 25-645); experiment: as above
T12 construct: Bought reagent; also called epidermal growth factor receptor

[13] = biological target: T13, rHuman IGF-1 sR, (IGF-1 sR), CF (R&D Systems Cat#391-GR) (human, UniProt P08069 31-932); experiment: as above
T13 construct: Bought soluble receptor; also called insulin-like growth factor-1 soluble receptor

[14] = biological target: T14, rHuman Notch-1/Fc Chimera, CF (R&D Systems Cat#3647-TK) (human, UniProt P46531 19-526); experiment: as above
T14 construct: Bought reagent

[15] = biological target: T15, rHuman Erythropoietin R/Fc Chimera, CF (R&D Systems Cat#963-ER) (human, UniProt P19235 25-250); experiment: Multispot ECL (MSD), antigen spotted on plate, Fab 7.8 nM; blank spot 316
T15 construct: Bought recombinant protein; also called EPO R/Fc; Epo R; Fc part of the bought chimera not given
T15 sequence (looked up): T2 sequence (looked up)

[16] = biological target: T16, rHuman Notch-1/Fc Chimera, CF (R&D Systems Cat#3647-TK) (human, UniProt P46531 19-526); experiment: as above
T16 construct: Bought recombinant protein; Fc part of the bought chimera not given

[17] = biological target: T17, rHuman IGF-1 sR, CF (R&D Systems Cat#391-GR) (human, UniProt P08069 31-932); experiment: as above
T17 construct: Bought recombinant soluble receptor; also called insulin-like growth factor-1 soluble receptor

[18] = biological target: T18, Recombinant Human DLL4 (R&D Systems Cat#1506-D4/CF) (human, UniProt Q9NR61 27-524); experiment: as above
T18 construct: Bought recombinant protein; also called rHuman DLL4; delta-like protein 4

ECL signal [1]: 561
ECL signal [2]: 673
ECL signal [3]: 556
ECL signal [4]: 706
ECL signal [5]: 525
ECL signal [6]: 645
ECL signal [7]: 2990
ECL signal [8]: 573
B1: Fab VH1-8_IGHD2-2*01_IGHJ6*01 & L12_IGKJ1*01 (Fab, V domains shown)
VH: QVQLVQSGAEVKKPGASVKVSCKASGYTFTSYDINWVRQATGQGLEWMGWMNPNSGNTGYAQKFQGRVTMTRNTSISTAYMELSSLRSEDTAVYYCARGGYCSSTSCYADYYYYYGMDVWGQGTTVTVSS
VL: not shown

ECL signal [9]: 253 ECL signal
ECL signal [10]: 317 ECL signal
ECL signal [11]: 291 ECL signal
ECL signal [12]: 289 ECL signal
ECL signal [13]: 231 ECL signal
ECL signal [14]: 333 ECL signal
B2: Fab VH1-46_IGHD6-6*01_IGHJ1*01 & L6_IGKJ1*01 (Fab, V domains shown)
VH: QVQLVQSGAEVKKPGASVKVSCKASGYTFTSYYMHWVRQAPGQGLEWMGIINPSGGSTSYAQKFQGRVTMTRDTSTSTVYMELSSLRSEDTAVYYCAREEYSSSSAEYFQHWGQGTLVTVSS
VL: not shown
notes: Only variable domains are tied to the molecule; Tested as a Fab made in E. coli: heavy chain from Plasmid A (CH1 constant region, His6 and Flag tags), kappa light chain from Plasmid C (kappa CL); also called parent Hit Fab against DLL4; VH1-46_IGHD6-6*01_IGHJ1*01 & L6_IGKJ1*01 (parental)

ECL signal [15]: 6760
ECL signal [16]: 486
ECL signal [17]: 353
ECL signal [18]: 407
B3: Fab VH1-46_IGHD6-13*01_IGHJ4*01 & B3_IGKJ1*01 (Fab, V domains shown)
VH: B2 VH with E100G, S105W, A106Y, E107D, Q110D, H111Y
VL: not shown
notes: Germline Fab made in E. coli; VH was cloned into Plasmid A (CH1, His6 and Flag tags) and the kappa VL into Plasmid C (kappa CL)
